Data set [1] deals with SspB-Gle1^152–360 fusion protein (E. coli | human) (UniProt Q53GS7). Put plainly: SEC-MALS; ACCORD (forced dimerization by SspB); Superose 6 10/300 GL; 20 mM HEPES (pH 7.6), 200 mM NaCl, 5% glycerol, 0.5 mM TCEP, 0.05% azide.
Data set [2] deals with the molecule itself. As to the kind of experiment: native gel or EMSA; 4–15% acrylamide gradient native PAGE, 150 V for 90 min, Coomassie staining. In general terms: A gel shift assay detects complexes by their altered migration in electrophoresis.
Data set [3] deals with the molecule itself. Put plainly: SEC; S200 size-exclusion chromatography; 20 mM HEPES, pH 7.5, 200 mM NaCl, 0.5 mM TCEP, 10% glycerol; MBP as a size reference.

A word on the stoichiometry N: it is the number of molecules, sites or subunits per partner or assembly. In the case of “SspB-Gle1^152–360 fusion protein (from UniProt Q53GS7 152-360)”, the stoichiometry N in data set [1] was 2.

B1: Gle1^152–360 (domain or fragment, human, UniProt Q53GS7 152-360, looked up)
chain: EEQERKVQALSEMASEQLKRFDEWKELKQHKEFQDLREVMEKSSREALGHQEKLKAEHRHRAKILNLKLREAEQQRVKQAEQERLRKEEGQIRLRALYALQEEMLQLSQQLDASEQHKALLKVDLAAFQTRGNQLCSLISGIIRASSESSYPTAESQAEAERALREMRDLLMNLGQEITRACEDKRRQDEEEAQVKLQEAQMQQGPEAH
notes: also called coiled-coil domain; source: E. coli Rosetta, purified (amylose resin, on-column cleavage, 30% ammonium sulfate precipitation, S200 SEC)
Turning to B1, the binding result in data set [2] was “binds”.

B2: Gle1^(1–360 8D) (domain or fragment, human, UniProt Q53GS7 1-360, looked up)
chain: MPSEGRCWETLKALRSSDKGRLCYYRDWLLRREDVLEECMSLPKLSSYSGWVVEHVLPHMQENQPLSETSPSSTSASALDQPSFVPKSPDASSAFSPASPATPNGTKGKDESQHTESMVLQSSRGIKVEGCVRMYELVHRMKGTEGLRLWQEEQERKVQALSEMASEQLKRFDEWKELKQHKEFQDLREVMEKSSREALGHQEKLKAEHRHRAKILNLKLREAEQQRVKQAEQERLRKEEGQIRLRADYADQEEMLQDSQQDDASEQHKALLKVDLAAFQTRGNQLCSLISGIIRASSESSYPTAESQAEAERADREDRDLDMNDGQEITRACEDKRRQDEEEAQVKLQEAQMQQGPEAH
notes: source: E. coli Rosetta, purified
Turning to B2, the binding result in data set [3] was “binds”.

B3: Gle1^1–360 (domain or fragment, human, UniProt Q53GS7 1-360, looked up)
chain: MPSEGRCWETLKALRSSDKGRLCYYRDWLLRREDVLEECMSLPKLSSYSGWVVEHVLPHMQENQPLSETSPSSTSASALDQPSFVPKSPDASSAFSPASPATPNGTKGKDESQHTESMVLQSSRGIKVEGCVRMYELVHRMKGTEGLRLWQEEQERKVQALSEMASEQLKRFDEWKELKQHKEFQDLREVMEKSSREALGHQEKLKAEHRHRAKILNLKLREAEQQRVKQAEQERLRKEEGQIRLRALYALQEEMLQLSQQLDASEQHKALLKVDLAAFQTRGNQLCSLISGIIRASSESSYPTAESQAEAERALREMRDLLMNLGQEITRACEDKRRQDEEEAQVKLQEAQMQQGPEAH
notes: human Gle1, N-terminal region, residues 1-360; also called WT Gle1^1–360; Gle1 N-terminal region; source: E. coli Rosetta, purified (amylose resin, on-column cleavage, S200 SEC)
As to B3, in data set [3], the binding result was “binds”.

B4: Gle1^(1–360 Δ45–54) (domain or fragment, human, UniProt Q53GS7 1-360, looked up)
chain: MPSEGRCWETLKALRSSDKGRLCYYRDWLLRREDVLEECMSLPKHVLPHMQENQPLSETSPSSTSASALDQPSFVPKSPDASSAFSPASPATPNGTKGKDESQHTESMVLQSSRGIKVEGCVRMYELVHRMKGTEGLRLWQEEQERKVQALSEMASEQLKRFDEWKELKQHKEFQDLREVMEKSSREALGHQEKLKAEHRHRAKILNLKLREAEQQRVKQAEQERLRKEEGQIRLRALYALQEEMLQLSQQLDASEQHKALLKVDLAAFQTRGNQLCSLISGIIRASSESSYPTAESQAEAERALREMRDLLMNLGQEITRACEDKRRQDEEEAQVKLQEAQMQQGPEAH
notes: also called Gle1^(1–360 45–54); source: E. coli Rosetta, purified (amylose resin, on-column cleavage, S200 SEC)
As for B4, the binding result in data set [3] is “binds”.

B5: MBP-Gle1^1–152 (domain or fragment, human, UniProt Q53GS7 1-152, looked up)
chain: MPSEGRCWETLKALRSSDKGRLCYYRDWLLRREDVLEECMSLPKLSSYSGWVVEHVLPHMQENQPLSETSPSSTSASALDQPSFVPKSPDASSAFSPASPATPNGTKGKDESQHTESMVLQSSRGIKVEGCVRMYELVHRMKGTEGLRLWQE
notes: source: E. coli Rosetta, purified (amylose resin eluted with maltose, ion exchange); not shown: MBP, N-terminal, kept
Take B5: the binding result in data set [3] is recorded as “binds”.

The values are drawn from PMC7864074, “Functions of Gle1 are governed by two distinct modes of self-association” (The Journal of Biological Chemistry, 2020).
